This assay addresses CD277 (BTN3A1) on Jeko-1 cells (UniProt O00481). Kind of assay: cell-based or functional assay.

CD277 (BTN3A1) on Jeko-1 cells, sequence (O00481 30-513 limits assumed): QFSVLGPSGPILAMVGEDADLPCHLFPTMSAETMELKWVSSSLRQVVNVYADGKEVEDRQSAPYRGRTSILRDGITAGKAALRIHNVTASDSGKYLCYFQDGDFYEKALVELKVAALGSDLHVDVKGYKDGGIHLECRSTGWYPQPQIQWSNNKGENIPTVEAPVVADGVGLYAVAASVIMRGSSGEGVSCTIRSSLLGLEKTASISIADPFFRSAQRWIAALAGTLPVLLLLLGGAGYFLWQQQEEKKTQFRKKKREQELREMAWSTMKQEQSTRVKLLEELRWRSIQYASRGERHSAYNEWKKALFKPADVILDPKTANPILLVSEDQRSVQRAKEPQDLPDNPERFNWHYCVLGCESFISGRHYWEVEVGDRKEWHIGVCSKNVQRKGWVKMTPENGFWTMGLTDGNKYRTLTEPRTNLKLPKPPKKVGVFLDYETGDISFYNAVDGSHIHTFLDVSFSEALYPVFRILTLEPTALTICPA

B1: human Vγ9Vδ2-TCR on cultured Vγ9Vδ2-T cells (TCR, V domains shown)
V domain 1: AGHLEQPQISSTKTLSKTARLECVVSGITISATSVYWYRERPGEVIQFLVSISYDGTVRKESGIPSGKFEVDRIPETSTSTLTIHNVEKQDIATYYCALWEAQQELGKKIKVFGPGTKLIITD
V domain 2: AIELVPEHQTVPVSIGVPATLRCSMKGEAIGNYYINWYRKTQGNTMTFIYREKDIYGPGFKDNFQGDIDIAKNLAVLKILAPSERDEGSYYCACDTLGMGGEYTDKLIFGKGTRVTVEP
B1 gave a decrease of 1D7-5C8-induced lysis of Jeko-1 cells with anti-CD277 mAb 103.2 (10 µg/mL) of 11.4% and a specific lysis of Jeko-1 cells at 10 pM 1D7-5C8 with anti-CD277 mAb 103.2 (10 µg/mL) of 18.2%.
